Assay results as given in PMC2936782 (Cell, 2010).

Experiments:
PlexinC1 (Homo sapiens) = PlexinC1 (Homo sapiens) (UniProt O60486); experiment: Scatchard analysis; details: cited from earlier work
[1] = target: Sema7A, extracellular segment, glycan-trimmed (for crystallization) (human) (UniProt O75326); experiment: crystal structure
[2] = target: Sema7A, extracellular segment, glycan-trimmed (for crystallization) (human) (UniProt O75326); experiment: SEC
[3] = target: PlexinC1-SemaPSI (Sema domain plus the first PSI domain) (human) (UniProt O60486); experiment: ITC
SEC + cross-linking = target: the molecule itself; experiment: SEC + cross-linking

Sema7A (from UniProt O75326)
Kd (PlexinC1 (Homo sapiens)): 2.1 nM

Sema7A, extracellular segment, glycan-trimmed (for crystallization) (from UniProt O75326 45-648) (ligand)
stoichiometry N [1]: 2
stoichiometry N [2]: 2

Sema7A, entire extracellular segment excluding the GPI anchor (from UniProt O75326 45-648) (ligand)
Kd [3]: 290 nM
dH [3]: -2 kcal/mol

B1: PlexinC1-ECD (entire extracellular segment) (receptor, human, UniProt O60486 35-944, looked up)
chain: ADEPVWRSEQAIGAIAASQEDGVFVASGSCLDQLDYSLEHSLSRLYRDQAGNCTEPVSLAPPARPRPGSSFSKLLLPYREGAAGLGGLLLTGWTFDRGACEVRPLGNLSRNSLRNGTEVVSCHPQGSTAGVVYRAGRNNRWYLAVAATYVLPEPETASRCNPAASDHDTAIALKDTEGRSLATQELGRLKLCEGAGSLHFVDAFLWNGSIYFPYYPYNYTSGAATGWPSMARIAQSTEVLFQGQASLDCGHGHPDGRRLLLSSSLVEALDVWAGVFSAAAGEGQERRSPTTTALCLFRMSEIQARAKRVSWDFKTAESHCKEGDQPERVQPIASSTLIHSDLTSVYGTVVMNRTVLFLGTGDGQLLKVILGENLTSNCPEVIYEIKEETPVFYKLVPDPVKNIYIYLTAGKEVRRIRVANCNKHKSCSECLTATDPHCGWCHSLQRCTFQGDCVHSENLENWLDISSGAKKCPKIQIIRSSKEKTTVTMVGSFSPRHSKCMVKNVDSSRELCQNKSQPNRTCTCSIPTRATYKDVSVVNVMFSFGSWNLSDRFNFTNCSSLKECPACVETGCAWCKSARRCIHPFTACDPSDYERNQEQCPVAVEKTSGGGRPKENKGNRTNQALQVFYIKSIEPQKVSTLGKSNVIVTGANFTRASNITMILKGTSTCDKDVIQVSHVLNDTHMKFSLPSSRKEMKDVCIQFDGGNCSSVGSLSYIALPHCSLIFPATTWISGGQNITMMGRNFDVIDNLIISHELKGNINVSEYCVATYCGFLAPSLKSSKVRTNVTVKLRVQDTYLDCGTLQYREDPRFTGYRVESEVDTELEVKIQKENDNFNISKKDIEITLFHGENGQLNCSFENITRNQDLTTILCKIKGIKTASTIANSSKKVRVKLGNLELYVEQESVPST
binding result (SEC + cross-linking): binds
